These results are taken from patent US20180326084A1 (Genmab, published 2018).

In experiment [1] the target is T1, human AXL (full length) (human, UniProt P30530 26-894).
T1 construct: also called TH1021-AXL; TH1021-hAXL
Put plainly: FMAT screening assay, HEK-293F cells transiently expressing human AXL.

Another experiment addresses T2, AXLECDHis (human, UniProt P30530 26-447).
T2 construct: theoretical mass 46 kDa used; also called extracellular domain (ECD) of human AXL (aa 1-447) with a C-terminal His tag; soluble recombinant AXL extracellular domain
The experiment in a line: BLI (Octet), IgG on anti-human Fc sensor, AXLECDHis analyte. On the technique in general: Biolayer interferometry detects binding as a change in optical thickness at a sensor tip.

Experiment [2] concerns the target T3, human AXL with a cynomolgus monkey extracellular domain (ECD) (cynomolgus monkey (Macaca …, UniProt P30530 26-894)).
T3 construct: Chimera on transfected HEK293T cells; also called cynomolgus AXL; cynomolgus AXL-ECD
T3 chain: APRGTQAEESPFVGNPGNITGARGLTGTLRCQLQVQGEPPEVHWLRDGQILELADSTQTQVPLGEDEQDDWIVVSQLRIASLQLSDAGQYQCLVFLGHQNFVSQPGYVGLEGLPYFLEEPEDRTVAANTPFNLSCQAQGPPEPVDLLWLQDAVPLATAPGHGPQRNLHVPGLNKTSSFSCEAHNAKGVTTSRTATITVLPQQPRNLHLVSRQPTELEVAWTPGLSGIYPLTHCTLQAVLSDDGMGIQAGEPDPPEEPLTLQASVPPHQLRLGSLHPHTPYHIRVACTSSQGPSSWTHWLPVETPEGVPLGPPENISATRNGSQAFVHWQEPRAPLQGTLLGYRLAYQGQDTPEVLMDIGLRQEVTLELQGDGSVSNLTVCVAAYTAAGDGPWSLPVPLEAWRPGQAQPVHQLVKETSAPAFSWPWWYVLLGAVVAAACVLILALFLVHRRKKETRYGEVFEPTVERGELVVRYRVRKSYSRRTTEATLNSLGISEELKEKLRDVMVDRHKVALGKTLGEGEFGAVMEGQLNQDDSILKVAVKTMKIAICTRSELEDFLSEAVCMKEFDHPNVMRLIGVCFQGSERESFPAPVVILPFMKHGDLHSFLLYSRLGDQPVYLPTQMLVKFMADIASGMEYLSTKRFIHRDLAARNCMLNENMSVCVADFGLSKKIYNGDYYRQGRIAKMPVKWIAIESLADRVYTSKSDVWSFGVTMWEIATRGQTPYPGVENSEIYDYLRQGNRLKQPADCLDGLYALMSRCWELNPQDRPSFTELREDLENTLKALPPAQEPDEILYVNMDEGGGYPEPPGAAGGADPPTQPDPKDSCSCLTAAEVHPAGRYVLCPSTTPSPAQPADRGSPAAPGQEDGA
The experiment in a line: flow cytometry, HEK293T cells with human AXL carrying cynomolgus ECD. On the technique in general: Flow cytometry measures light scatter and fluorescence of single cells or particles in a stream.

Experiment [3] deals with T1, human AXL (full length). Put plainly: flow cytometry, HEK293T cells with full-length human AXL.
The target of experiment [4] is T4, Homo sapiens AXL-Mus musculus FN2 domain (p33-AXL-mFN2) (human-mouse chimera, UniProt P30530 26-894).
T4 construct: Expressed in HEK293F cells; also called hsAXL-mmFN2; TH1021-mFN2
T4 chain: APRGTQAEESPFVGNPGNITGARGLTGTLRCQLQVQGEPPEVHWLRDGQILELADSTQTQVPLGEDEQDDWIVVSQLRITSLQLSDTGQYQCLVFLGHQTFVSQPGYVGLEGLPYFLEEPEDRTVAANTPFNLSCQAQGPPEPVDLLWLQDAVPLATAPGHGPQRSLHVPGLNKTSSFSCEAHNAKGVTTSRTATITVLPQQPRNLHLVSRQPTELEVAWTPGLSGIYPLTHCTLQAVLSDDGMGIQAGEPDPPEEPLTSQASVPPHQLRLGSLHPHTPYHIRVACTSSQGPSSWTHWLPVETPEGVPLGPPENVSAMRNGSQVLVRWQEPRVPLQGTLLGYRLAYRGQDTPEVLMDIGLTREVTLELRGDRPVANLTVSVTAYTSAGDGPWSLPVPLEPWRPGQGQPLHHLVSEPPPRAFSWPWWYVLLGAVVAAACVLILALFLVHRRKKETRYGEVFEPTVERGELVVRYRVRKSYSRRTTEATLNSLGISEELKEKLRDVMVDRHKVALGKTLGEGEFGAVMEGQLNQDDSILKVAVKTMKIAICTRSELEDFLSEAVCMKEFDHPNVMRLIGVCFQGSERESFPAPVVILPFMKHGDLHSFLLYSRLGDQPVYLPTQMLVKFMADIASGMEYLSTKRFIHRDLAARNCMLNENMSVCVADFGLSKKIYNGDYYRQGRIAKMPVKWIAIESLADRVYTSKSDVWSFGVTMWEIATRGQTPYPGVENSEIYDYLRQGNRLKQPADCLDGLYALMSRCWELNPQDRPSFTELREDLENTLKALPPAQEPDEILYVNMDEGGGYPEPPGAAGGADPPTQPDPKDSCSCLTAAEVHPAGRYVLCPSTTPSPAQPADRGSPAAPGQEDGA
Put plainly: flow cytometry, 1 µg/mL antibody, transfected HEK293F cells.

Experiment [5] deals with T5, Homo sapiens AXL-Mus musculus Ig1 domain (p33-AXL-mIg1) (human-mouse chimera, UniProt P30530 8-894).
T5 construct: Expressed in HEK293F cells; also called hsAXL-mmIg1; hsAXL-mmIgl
T5 chain: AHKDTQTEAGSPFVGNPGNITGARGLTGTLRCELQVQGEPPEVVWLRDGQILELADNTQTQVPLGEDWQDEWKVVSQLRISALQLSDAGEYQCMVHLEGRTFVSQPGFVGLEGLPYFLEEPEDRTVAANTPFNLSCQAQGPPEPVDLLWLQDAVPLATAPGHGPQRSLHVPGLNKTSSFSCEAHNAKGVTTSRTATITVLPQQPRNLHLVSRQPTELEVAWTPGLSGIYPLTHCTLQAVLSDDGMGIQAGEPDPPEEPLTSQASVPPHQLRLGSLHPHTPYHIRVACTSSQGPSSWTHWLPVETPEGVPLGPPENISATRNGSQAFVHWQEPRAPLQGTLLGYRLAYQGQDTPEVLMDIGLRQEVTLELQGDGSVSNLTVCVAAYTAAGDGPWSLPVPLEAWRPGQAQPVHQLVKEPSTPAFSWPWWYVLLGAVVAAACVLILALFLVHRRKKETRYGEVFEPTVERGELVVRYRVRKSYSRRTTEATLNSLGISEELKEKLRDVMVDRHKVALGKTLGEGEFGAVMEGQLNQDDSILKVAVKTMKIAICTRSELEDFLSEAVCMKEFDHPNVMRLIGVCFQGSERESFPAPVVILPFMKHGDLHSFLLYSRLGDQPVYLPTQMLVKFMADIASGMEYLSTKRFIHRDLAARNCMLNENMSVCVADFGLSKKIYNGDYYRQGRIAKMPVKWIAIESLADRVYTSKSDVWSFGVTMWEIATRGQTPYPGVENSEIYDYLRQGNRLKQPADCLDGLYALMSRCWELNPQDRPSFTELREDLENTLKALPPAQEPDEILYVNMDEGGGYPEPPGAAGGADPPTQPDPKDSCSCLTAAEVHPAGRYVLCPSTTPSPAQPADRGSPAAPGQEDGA
The description is as above.

The target of experiment [6] is T6, Homo sapiens AXL-Mus musculus Ig2 domain (p33-AXL-mIg2) (human-mouse chimera, UniProt P30530 26-894).
T6 construct: Expressed in HEK293F cells; also called hsAXL-mmIg2; TH1021-mIg2
T6 chain: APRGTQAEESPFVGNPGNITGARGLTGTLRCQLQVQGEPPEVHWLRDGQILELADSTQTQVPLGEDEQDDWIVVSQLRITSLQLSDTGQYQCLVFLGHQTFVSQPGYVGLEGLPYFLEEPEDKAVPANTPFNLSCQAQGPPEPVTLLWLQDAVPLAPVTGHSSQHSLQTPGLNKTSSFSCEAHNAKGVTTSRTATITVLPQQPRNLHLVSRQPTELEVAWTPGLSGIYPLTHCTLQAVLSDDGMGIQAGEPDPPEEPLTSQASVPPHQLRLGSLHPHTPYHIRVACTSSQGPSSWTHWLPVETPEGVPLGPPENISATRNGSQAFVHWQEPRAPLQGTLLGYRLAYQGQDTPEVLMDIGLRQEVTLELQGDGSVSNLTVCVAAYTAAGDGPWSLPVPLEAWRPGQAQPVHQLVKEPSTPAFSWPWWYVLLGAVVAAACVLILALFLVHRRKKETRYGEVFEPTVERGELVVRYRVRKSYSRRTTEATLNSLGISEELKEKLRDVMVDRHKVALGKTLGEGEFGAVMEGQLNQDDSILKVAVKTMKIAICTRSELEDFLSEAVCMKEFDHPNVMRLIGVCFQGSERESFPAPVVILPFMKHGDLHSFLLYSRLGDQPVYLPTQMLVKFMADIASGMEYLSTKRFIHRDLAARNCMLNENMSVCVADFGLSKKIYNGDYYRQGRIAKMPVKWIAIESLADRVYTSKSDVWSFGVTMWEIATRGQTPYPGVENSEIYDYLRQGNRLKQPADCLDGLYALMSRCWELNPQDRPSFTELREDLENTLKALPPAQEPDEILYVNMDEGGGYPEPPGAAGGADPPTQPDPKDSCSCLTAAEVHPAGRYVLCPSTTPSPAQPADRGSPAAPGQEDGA
The experiment is described as above.

Substitutions are numbered along the chain they refer to.

B1: IgG1-AXL-140 (antibody, V domains shown)
VH: EVQLLESGGGLVQPGGSLRLSCAASGFTFSSYAMTWVRQAPGKGLEWVSAISISGASTFYADSVKGRFTISRDNSKNTLSLQMNSLRAEDTAVYFCRGYSGYVYDAFDIWGQGTMVTVSS
VL: DIQMTQSPSSLSASVGDRVTITCRASQGISNWLAWYQQKPEKAPKSLIYAASSLQSGVPSRFSGSGSGTDFTLTISSLQPEDFATYYCQQYNSYPLTFGGGTKVEIK
B1: in the experiment with human AXL (full length) [1], the response was half-maximal at 0.0026 µg/mL (EC50) and the “Maximal binding (Arbitrary units)” value came to 2890 arbitrary units.

B2: IgG1-AXL-726-M101L (antibody, V domains shown)
VH: QVQLQQWGAGLLKPSETLSLTCAIDGGSFSGYYWSWIRQPPGKGLEWIGEISHSGRTNYNPSLKSRVTISIDTSKNQFSLKLSSVAAADTAVYYCARFITLIRGAIITHFDYWGQGALVTVSS
VL: B1 VL with N31S, N92H, L96Y, G100Q, V104L
notes: Expressed as human IgG1,κ
As for B2, in the experiment with AXLECDHis, the Kd (commonly the constant that tells how readily two partners part at equilibrium) came to 300 pM; the dissociation rate constant (koff) – broadly, a measure of how fast the partners let go of each other – amounted to 6.9e-05 s⁻¹; the kon (commonly the rate constant with which the complex forms) was determined as 210000 M⁻¹ s⁻¹. Also, the EC50 (usually the midpoint of the concentration-response curve) in experiment [2] came out at 0.25 µg/mL. Moreover, the EC50 in the experiment with human AXL (full length) [3] was 0.184 µg/mL.

B3: IgG1-AXL-187 (antibody, V domains shown)
VH: B2 VH with Q3P, I24V, D25Y, Y33H, A86T, R97S, L101M, A105T, A117T
VL: B1 VL with N31S, N92H, L96Y, G100Q, V104L
As to B3, in the experiment with human AXL (full length) [1], the response was half-maximal at 0.0065 µg/mL (EC50) and the “Maximal binding (Arbitrary units)” value turned out to be 2560 arbitrary units.

B4: IgG1-AXL-613-08 (antibody, V domains shown)
VH: QVQLVQSGAEVKKPGSSVKVSCKASGGTFSSYAINWMRQAPGQGLEWMGRIIPIFGIVNYAQKFQGRVTLTADKSTSTAYMELSSLRSEDTAVYYCARRGNYYGSGSPDVFDIWGQGTMVTVSS
VL: EIVLTQSPATLSLSPGERATLSCRASQSVSSYLAWYQQKPGQAPRLLIYDASNRATGIPARFSGSGSGTDFTLTISSLEPEDFAVYYCQQRSNWLTFGGGTKVEIK
Take B4: in the experiment with human AXL (full length) [1], the midpoint of the response, the EC50, lay at 0.0242 µg/mL and the “Maximal binding (Arbitrary units)” value was 2210 arbitrary units.

B5: IgG1-AXL-154 (antibody, V domains shown)
VH: EVQLLDSGGGLVQPGGSLRLSCAASGFTFSSYAMSWVRQAPGKGLEWVSAISIGGGNAYYADSVKGRFTISRDNSKNTLYLQMNSLRAADTAVYYCAKPGFIMVRGPLDYWGQGALVTVSS
VL: not shown
On to B5, for which the binding result in experiment [4], in experiment [5] and in experiment [6] was “binds” throughout.
